Values joined by “and” are separate entries in the source; they are usually repeats but may differ in a detail not shown here. Equal values may be shown once.
B1: Tryptophan synthase alpha chain, P0A877 (parent)
chain: MERYESLFAQLKERKEGAFVPFVTLGDPGIEQSLKIIDTLIEAGADALELGIPFSDPLADGPTIQNATLRAFAAGVTPAQCFEMLALIRQKHPTIPIGLLMYANLVFNKGIDEFYAQCEKVGVDSVLVADVPVEESAPFRQAALRHNVAPIFICPPNADDDLLRQIASYGRGYTYLLSRAGVTGAENRAALPLNHLVAKLKEYNAAPPLQGFGISAPDQVKAAIDAGAAGAISGSAIVKIIEQHINEPEKMLAALKVFVQPMKAATRS

Variants of: B1
Conditions: Escherichia coli (strain K12), pH 7, 25 °C, GdnHCl, CD, Tris-HCl 20 mM, reversible: yes, structure 1WQ5, whole UniProt chain shown

With MERYESLFAQLKERKEGAFVPFVTLGDPGIEQSLKIIDTLIEAGADALELGIPFSDPLADGPTIQNATLRAFAAGVTPAQCFEMLALIRQKHPTIPIGLLMYANLVFNKGIDEFYAQCEKVGVDSVLVADVAVEESAPFRQAALRHNVAPIFICPPNADDDLLRQIASYGRGYTYLLSRAGVTGAENRAALPLNHLVAKLKEYNAAPPLQGFGISAPDQVKAAIDAGAAGAISGSAIVKIIEQHINEPEKMLAALKVFVQPMKAATRS [P132A] the “ddG of mutation (higher = less stable)” value was 4.39 kJ/mol, the unfolding free energy was 29.9 kJ/mol and the unfolding free energy (transition: 3) was 13.9 kJ/mol and 16.1 kJ/mol.

With MERYESLFAQLKERKEGAFVPFVTLGDPGIEQSLKIIDTLIEAGADALELGIPFSDPLADGATIQNATLRAFAAGVTPAQCFEMLALIRQKHPTIPIGLLMYANLVFNKGIDEFYAQCEKVGVDSVLVADVPVEESAPFRQAALRHNVAPIFICPPNADDDLLRQIASYGRGYTYLLSRAGVTGAENRAALPLNHLVAKLKEYNAAPPLQGFGISAPDQVKAAIDAGAAGAISGSAIVKIIEQHINEPEKMLAALKVFVQPMKAATRS [P62A] the “ddG of mutation (higher = less stable)” value was 1.3 kJ/mol, the unfolding free energy was 33 kJ/mol and the unfolding free energy (transition: 3) was 14.8 kJ/mol and 18.2 kJ/mol.

For MERYESLFAQLKERKEGAFVPFVTLGDPGIEQSLKIIDTLIEAGADALELGIPFSDPLADGPTIQNATLRAFAAGVTPAQCFEMLALIRQKHPTIAIGLLMYANLVFNKGIDEFYAQCEKVGVDSVLVADVPVEESAPFRQAALRHNVAPIFICPPNADDDLLRQIASYGRGYTYLLSRAGVTGAENRAALPLNHLVAKLKEYNAAPPLQGFGISAPDQVKAAIDAGAAGAISGSAIVKIIEQHINEPEKMLAALKVFVQPMKAATRS [P96A], the “ddG of mutation (higher = less stable)” value was 8.91 kJ/mol, the unfolding free energy was 25.4 kJ/mol and the “ddG of mutation (higher = less stable)” value (transition: 3) was 6.69 kJ/mol and 2.3 kJ/mol. The unfolding free energy (transition: 3) was 11 kJ/mol and 14.4 kJ/mol.

For MERYESLFAQLKERKEGAFVPFVTLGDPGIEQSLKIIDTLIEAGADALELGIPFSDPLADGPTIQNATLRAFAAGVTPAQCFEMLALIRQKHPTIPIGLLMYANLVFNKGIDEFYAQCEKVGVDSVLVADVPVEESAPFRQAALRHNVAPIFICPPNADDDLLRQIASYGRGYTYLLSRAGVTGAENRAALPLNHLVAKLKEYNAAAPLQGFGISAPDQVKAAIDAGAAGAISGSAIVKIIEQHINEPEKMLAALKVFVQPMKAATRS [P207A], the unfolding free energy (transition: 3) was 10.2 kJ/mol and 19.3 kJ/mol.

With MERYESLFAQLKERKEGAFVPFVTLGDAGIEQSLKIIDTLIEAGADALELGIPFSDPLADGPTIQNATLRAFAAGVTPAQCFEMLALIRQKHPTIPIGLLMYANLVFNKGIDEFYAQCEKVGVDSVLVADVPVEESAPFRQAALRHNVAPIFICPPNADDDLLRQIASYGRGYTYLLSRAGVTGAENRAALPLNHLVAKLKEYNAAPPLQGFGISAPDQVKAAIDAGAAGAISGSAIVKIIEQHINEPEKMLAALKVFVQPMKAATRS [P28A] the “ddG of mutation (higher = less stable)” value was 7.99 kJ/mol, the unfolding free energy was 26.3 kJ/mol and the unfolding free energy (transition: 3) was 9.5 kJ/mol and 16.9 kJ/mol.

In the case of MERYESLFAQLKERKEGAFVPFVTLGDPGIEQSLKIIDTLIEAGADALELGIPFSDALADGPTIQNATLRAFAAGVTPAQCFEMLALIRQKHPTIPIGLLMYANLVFNKGIDEFYAQCEKVGVDSVLVADVPVEESAPFRQAALRHNVAPIFICPPNADDDLLRQIASYGRGYTYLLSRAGVTGAENRAALPLNHLVAKLKEYNAAPPLQGFGISAPDQVKAAIDAGAAGAISGSAIVKIIEQHINEPEKMLAALKVFVQPMKAATRS [P57A], the “ddG of mutation (higher = less stable)” value is reported as 2.01 kJ/mol, the unfolding free energy is reported as 32.3 kJ/mol and the “ddG of mutation (higher = less stable)” value (transition: 3) is reported as 1 kJ/mol. For the same variant, the unfolding free energy (transition: 3) was 16.7 kJ/mol and 15.7 kJ/mol.
